Experimental data published in the DeepSol protein solubility set.

Test: soluble on expression in E. coli; label from the status in PepcDB or PDB records

Row | Sequence | soluble on expression in E. coli
1 | MSTSRDRVRQALSHQGSDRIPVDFGATAVTGIHCRVVEALRKHYGLSYKPVKIVDTFQMLGEVDRDLADAMGVDCIGVGGTRDIFDHDTECMHEQVTPWGQKVLVPIQLDLTQDKEGDVYVYAGGDKNYPPSAVMPNGCFFINAIERQQPIDEDKLNPMDNLEEFNSITDEELDVYKKKVNEASATGRAVVASFGGTALGDVAFVPGMGLKEPKGIRSVVEWYMSTVMRQEYLHEIFRRQTDIAIANYEKLWAVLGDKVDVVLTCGTDFGSQESQFCSVEVFNELWLPHYRRMNDWIHEHTTWKVFKHSCGAIVPILPGLIKAGFDIINPVQINAKDMDSGMLKREFGSHLTFWGGGVDTQKMLPFGTPDEIRRHVLGQCEILGKDGGFVFNSVHNIQANVPVENVIAMLDALKTVLEHHHHHH | not soluble
2 | MTARNPLEAQAWALLEAVYDPELGLDVVNLGLIYDLVVEPPRAYVRMTLTTPGCPLHDSLGEAVRQALSRLPGVEEVEVEVTFEPPWTLARLSEKARRLLGWG | soluble
3 | METPLEKALTTMVTTFHKYSGREGSKLTLSRKELKELIKKELCLGEMKESSIDDLMKSLDKNSDQEIDFKEYSVFLTMLCMAYNDFFLEDNK | soluble
4 | MSLILENEVIWDPERYVLGNYIQNKINDVFLKTIHSKLSGNILDIGCGDGHYTSLLAGKVKHGQILGIDSSEQMIMHANQQWARTGLSFEVHNIEEFHQPQSFDLVLSFWCLHWTNIHISFPNIFHLLKREGKLYAVMSSFSDHSILQTWKELAKQNLYRDLTKQYISPINEQYFYGVINLLNRLPFKRIKLDLKTCRVHLPHIDYYKNLLLTMPFIKRVPSEITDTLVEDMLKAFQTICDRKYGGELYYETRPIFLEAIKEGHHHHHH | not soluble
5 | MGSDKIHHHHHHMVRLWLMYKNKEEQANMQVEKDVIYDSAYNLAADLYVPDEANGGAIVYAHGGGWFRGDKENESDLGKYFADAGYLFTIPNFRLAPKYLYPTAQNDFDHFINWLLASPYDFDRERLGLLGASSGGTMVLQNSLASGYPLVAWSPVVDFANWVQKNQMVKASVDGKKELGLTEIHEIHDSFYKYFVQTYLGGLDPRLLTAVNPTNHLTDQLGPALLFNSADELMPLPSALHFLQQAAMFGRDIGLHVVPGTGHARDYTSFALPETKRFFDHHLFTTVEDKTLNKATD | not soluble
6 | MGSDKIHHHHHHMKIAVLNQKGGSGKTTVSIHLAHAFSMIGYRVLLVDTDPQGSTRDWAAARNGEAPFSVIGLDRPILHKELPKLAQGYDFVFIDGAPRVSDLTRSAIMAVDFVLVPVQPSPLDVWAVHEVVELVQEATIYKPDLTAAFLINRKIANTALGREVTEVLGEYPFPVLKAQISQRVAFAECLNIGSTVLEAAPKSAASDEVRAVVEEILEAREETNHGRS | not soluble
7 | MGSDKIHHHHHHMNLYVGLDVGTTGVKGILVNEKGEILATANERLTMFTPQPAWAEQDPLSWWEAVKKILKNLSERSKEMGGKIRAISTSGQMHSLVAIDDNGKVLRNAILWCDQRTYKECEEATQILGGEENVLKLVGNPILPGFTLPKILWIRKHEPEIYGKISKIMLPKDFINYMLTGEVKTEHSDASGTVMYSVSKMEWNKDVLKELNIPESVLPEIIPSNGVVGNVKPEVASDLGLSEDTLVIGGGADNACAALGIAVVEPGDVMVSLGTSGTVLAPTKGNQPDPKGRVHFFAHTVPETRYHMGVMLSATYSLEWFKEKFLSEDYETINEEVDKIPAGSNGIIFLPYLNGERTPHRDPFARGVFFGISSYNTKWDMVRAIFEGVAFGIKDSFDILRELKVVLNSVRITGGGSKSRVWNKMLADMTGLRIQKPAVDEGASYGAAILAVSGSMGENPAKISKEWFRVKSYTDPAVENTETYEKLHEKFKKLYTSLKEMFRS | not soluble
8 | MPTLQAAMFLEKDMQKNTLWFDSLSMQDVDKVGGKNASLGEMVSNLANAGVSVPNGFATTAYAFNQFLDFEGLDERIHQLLDELDVDDVDALRKTGATIRQWILQAPFPAELEQEIRTNYNQLIDGNSELSVAVRSSATAEDLPDASFAGQQETFLNVKGIDAVLEATKHVYASLFNDRAISYRVHQGFDHRGIALSAGIQRMVRSDKAASGVMFTLDTESGFDKVVFITAAWGLGEMVVQGAVNPDEFYVHKPLLEAGYPAIVKKTFGSKLSKMIYANSQVIGKQVEVVDTSAHERNQFSLTDAEIQELAKQALIIEKHYQRPMDIEWAKDGIDGKLYIVQARPETVCSQSEQNVIERYELSHKASVLLEGRAIGQRIGSGTVRLVDSLDQMSLVQQGDVLVTDMTDPDWEPVMKKAAAIVTNRGGRTCHAAIIARELGIPAIVGCGDATRRLSDGAQVTVSCAEGETGYVYAGQLDFAVRRSSVDELPMLPTKVMMNVGNPDRAFDFAQIPNEGVGLARLEFIINKMIGIHPKALLNFDTQSAELQTQILDRIRGYRDPIDFYVSKLTEGIATIAAAFWPKRVIVRMSDFKSNEYSNLLGGSEFEPHEENPMLGFRGASRYISPVFEDCFELETQAIKRVRHEMGLKNVEVMIPFVRTTGEAEAVIDLLAKFGLRRGEQGLKVIMMCELPSNAVLADEFLKFFDGFSIGSNDMTQLTLGLDRDSGDVAHLFDERNPAVKIMLKMAIDAATRAGKYVGICGQGPSDHDDLAQWLMEQGISSVSLNPDTVIDTWLKLGAVSKC | not soluble
9 | IPGKDVAVTAGRVVFQNHLIELIQYEAQTKTVYKEPILILPAWIMKYYILDLSPHNSLVKWLVKQGHTVFIISWRNPDKEDCDLGMDDYYRLGAMAAIDMVSTILPETKINLMGYCLGGTLAMITASMMGRYEDERLNCLTLLAAQGDFSEAGELMLFVNESQVDFLKSMMWEQGYLDTKQMAGSFQMLRAYDLIWSKMVQDYMHGMRRGMIDLTAWNADATRMPYKMHSEYLEKLFLNNDFAEGRYMVEGKSVAAENIQCPIFAVSTKKDHVAPWQSVYKIHLMTEENVTFVLTGGGHN | not soluble
10 | MKLRANIIEKRGTLQVIVSYKDSNGKIRQKWKDTKLKKKGNKKRAEKIRDEFLLELESQLAMECECANPDLLFYDYLLNYLEVSKKQVAFNTYVGYKHYVHNRIYKFFYPKKIKLNRLKPYHLQDFYQYMLNDDCTANTVIHYHAFIRKALQEAVITELISTNVADKVRKPKKKQFVSQVYNQHEILKLLDILSEEKLYLVVLLTAFYGLRRSEVLGLKWSAIDFLNKKIMINHVIIENPENMSQLIKKDQTKNSSSYRTLPLVETIERALVNQAKWQQDNRILLGEDYILKDSEYVFTMEDGRLMKPQYVTHRLSKLIKKNGLKKIRFHDLRHSNASIMLDSGQNMKSIQEWLGHASYSTTANLYTHLTAGVKERAAEALENAFGFKE | not soluble
11 | MGSDKIHHHHHHMNEQFERLMVRVESLMARIESVLPQPLSAPDWTASVAYRYRKRGSGHGSLEPVRHLGAMRLTDLKEIDGQKDRIRRNTEQFVSGKPANNVLLTGSRGTGKSSLIKACLNEYSARGLRLIEVDKADLTDLPDIVDVVSGLPEKFIVFCDDLSFEEGEPGYKALKSILDGSIAAATPNVLIYATSNRRHLLPEYMMENLTYTHTEDGEVHPGEVVEEKISLSERFGLWVSFYPFSQDEYLTIVAQWLSSFGVNAEAISAARPASLVWALERGSRSGRVAYQFARDYAGQHAGTVQ | not soluble
12 | MGSDKIHHHHHHMVNFLNEGGYVLDFSTADFDAFTYKSIGVPLCETYRLSKGKSLIAYINDTKYEDKIKLLSDLIRYYELSSMKEHDEENRKSRAVAYKKCRSILDKAGGTMVMTATAETLKEAFDSDYISAQIDLMLNLKDGNPTEAIGKAKELIESCCKTILEFEGCTVDKDWEVPRLVDETFKHFHLMPKNISDDVKGAKSIKAILGNLKAIAQGVAELRNLYGSGHGKSSSYKGLESRHASLAIGSSTTLVRFLWDSYERHHNNEVN | not soluble
13 | SNAMRLVADSACDIKELRGMVFKAVPLTISTDNEEFCDDGQLDIHRMLDILEKHKGRSYTACPGIDAWLEAFGDDDEIFVVTITAGMSGTYNSAMAARAVYLEEHPQAKVRVIDSKSTGPQMRIILEQLQQMIEEGKKFEEIDGAIDAYMQKTRLFCSLKSLHNLAQNGRVSKVVASAAEVLGISVIGTASSHGTLEAIGKCRGDKKLLVKLQALLDDAGYEGGKLRICHVENEALADKIADMIKQAYGTTDVCVYKAGGLCSYYAERGGIILSCETK | soluble
14 | MSLRDGKHIRTKLTPQKDRGESSYRIGLYIRDSAAGIGTMTFVHPDSMKYGALGHVISDNDTKKPIQVEDGQIMRSTVTSIERGSHGNPGEKLARFSPDREVIGNITINSPFGIFGKLNTNMTNGVMDKAMPIALSHQVKEGPAKILTVIDQDKVEAFDIEVVSTVPQKFPATKGMVIKVTDKRLLAKTGGIVQGMSGSPIVQNGKVIGAVTHVFVNDPTSGYGVHIEWMLHEAGINIYDQERKASEGHHHHHH | soluble
15 | MHSTPKRVLLAGATGLTGEHLLDRILSEPTLAKVIAPARKALAEHPRLDNPVGPLAELLPQLDGSIDTAFCCLGTTIKEAGSEEAFRAVDFDLPLAVGKRALEMGARHYLVVSALGADAKSSIFYNRVKGELEQALQEQGWPQLTIARPSLLFGPREEFRLAEILAAPIARILPGKYHGIEACDLARALWRLALEEGKGVRFVESDELRKLGK | soluble
16 | MTSEKLSAACHCGSVVFTVQLSDGFHTARRCNCSFCRMRGAVAVSAPLSGIKVLKGQDKLTEYRFNTGKAVHFFCSVCGIYTFHQRRSNPDQYGVNVACIENVSPFDFACVEVNDGVTHPSDGGSSGVVGYLRYEPKKSPPVETGGKNILEHHHHHH | soluble
17 | MANPLYQKHIISINDLSRDDLNLVLATAAKLKANPQPELLKHKVIASCFFEASTRTRLSFETSMHRLGASVVGFSDSANTSLGKKGETLADTISVISTYVDAIVMRHPQEGAARLATEFSGNVPVLNAGDGSNQHPTQTLLDLFTIQETQGRLDNLHVAMVGDLKYGRTVHSLTQALAKFDGNRFYFIAPDALAMPQYILDMLDEKGIAWSLHSSIEEVMAEVDILYMTRVQKERLDPSEYANVKAQFVLRASDLHNAKANMKVLHPLPRVDEIATDVDKTPHAWYFQQAGNGIFARQALLALVLNRDLVL | soluble
18 | GHMDVGERSSDQGTTVLTEAQRIDWMRLIRAENVGPRTFRSLINHFGSARAALERLPELARRGGAARAGRIPSEDEARREIEAGRRIGVELVAPGETGYPTRLATIDDAPPLLGVHALPEALAVMARPMIAIVGSRNASGAGLKFAGQLAADLGAAGFVVISGLARGIDQAAHRASLSSGTVAVLAGGHDKIYPAEHEDLLLDIIQTRGAAISEMPLGHVPRGKDFPRRNRLISGASVGVAVIEAAYRSGSLITARRAADQGREVFAVPGSPLDPRAAGTNDLIKQGATLITSASDIVEAVASILERPIELPGREPEHAPPEGEPDTGDRTRILALLGPSPVGIDDLIRLSGISPAVVRTILLELELAGRLERHGGSLVSLS | soluble
19 | MGSTSSLYAAIDLGSNSFHMLVVREVAGSIQTLTRIKRKVRLAAGLNSENALSNEAMERGWQCLRLFAERLQDIPPSQIRVVATATLRLAVNAGDFIAKAQEILGCPVQVISGEEEARLIYQGVAHTTGGADQRLVVDIGGASTELVTGTGAQTTSLFSLSMGCVTWLERYFADRNLGQENFDAAEKAAREVLRPVADELRYHGWKVCVGASGTVQALQEIMMAQGMDERITLEKLQQLKQRAIHCGRLEELEIDGLTLERALVFPSGLAILIAIFTELNIQCMTLAGGALREGLVYGMLHLAVEQDIRSRTLRNIQRRFMIDIDQAQRVAKVAANFFDQVENEWHLEAISRDLLISACQLHEIGLSVDFKQAPQHAAYLVRNLDLPGFTPAQKKLLATLLLNQTNPVDLSSLHQQNAVPPRVAEQLCRLLRLAIIFASRRRDDLVPEMTLQANHELLTLTLPQGWLTQHPLGKEIIAQESQWQSYVHWPLEVH | soluble
